Values of other authors in PMC2862573.
pKd: −log10 of the molar value.

Target: CCR2 loop-2 peptide (Homo sapiens)

pKd: 4.66
Substance: MCP-1 (from UniProt P13500)
